Target: T1, recombinant human IgE (human, UniProt P01854-1 1-428)
T1 construct: made in-house (ALK); preloaded on immobilised FcεRIα in the displacement ELISA
Assay: IgE-FcεRIα displacement ELISA
Method: The displacement effect was tested using IgE-FcεRIα displacement ELISA assay. Maxisorp® microtiter plates (Thermo Scientific Nunc, Roskilde, Denmark) were coated with 100 μl streptavidin, 5 μg/ml (Thermo Scientific, Waltham, MA) for 18 h at 4° C. followed by wash with 300 μl washing buffer (PBS containing 0.05% Tween 20) using an AquaMax® 2000 plate washer (Molecular Devices, San Jose, CA). Remaining binding sites were blocked with 250 μl blocking buffer (PBS containing 2% BSA) for 2 h and washed with 300 μl washing buffer. Subsequently, the bound streptavidin was loaded with 100 μl (0.1 μg/ml) recombinant human FcεRIα (site specific biotinylated via avi-tag, made in-house, ALK, Hørsholm, Denmark) for 1 h and plates washed twice with 300 μl washing buffer. The bound receptor was then loaded with 100 μl recombinant human IgE (made in-house, ALK, Hørsholm, Denmark), 13 ng/ml (pre-titrated to reach an OD₄₅₀ signal in the range of 1.5-2.5 in the absence of displacement components) for 1h followed by three washes of 300 μl washing buffer.
displacement step: 100 μl sdAbs diluted in concentration series (pM-μM range) or blocking buffer only as a non-displacement negative control, were added to the ELISA wells and incubated for 1 h. Any IgE, displaced from the receptor by a sdAb was washed away by three washes of 300 μl washing buffer.
The ability of the various sdAbs to displace IgE from the receptor (FcεRIα) was evaluated by use of the ELISA based IgE-FcεRIα displacement assay. The percent displacement effect was calculated as the relative reduction in signal compared to the control with no sdAb added. The EC₅₀ values and the maximal effects were determined (table 15).

T1 sequence (P01854 other isoform, or with tags, fused parts or gaps): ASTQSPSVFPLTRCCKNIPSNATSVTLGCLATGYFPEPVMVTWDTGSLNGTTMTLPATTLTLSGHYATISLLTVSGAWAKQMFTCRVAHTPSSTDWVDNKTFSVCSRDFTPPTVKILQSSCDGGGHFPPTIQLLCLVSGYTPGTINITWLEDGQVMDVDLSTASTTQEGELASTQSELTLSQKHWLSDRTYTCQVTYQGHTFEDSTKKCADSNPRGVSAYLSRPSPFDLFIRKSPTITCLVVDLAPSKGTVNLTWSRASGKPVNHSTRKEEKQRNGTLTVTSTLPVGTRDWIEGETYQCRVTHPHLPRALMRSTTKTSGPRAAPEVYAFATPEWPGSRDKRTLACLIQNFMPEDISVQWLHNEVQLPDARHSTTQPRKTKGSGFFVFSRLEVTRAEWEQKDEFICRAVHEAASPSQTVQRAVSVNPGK

Row | Binder | EC50 [nM] | Max effect [%]
1 | A1B1(G4S)1 (bispecific antibody) EVQLLESGGGLVQPGGSLRLSCAASGFTFGNYDMAWVRQAPGKRPEWVSSIDTGGDITHYADSVKGRFTISRDNAKNTLYLQMNSLRPEDTAVYWCATDEEYALGPNEFDYYGQGTLVTVSSGGGGSQVQLQESGGGLVQTGGSLRLSCAVHGRTFSNTGMGWFRQAPGNERQFVAIISPSGTSTYYADSVKGRFTISRDPAKNTVYLQMNSLKMDDTAVYYCAASYGSNWSTLRHQRRNEYDAWGQGTQVAVS | 1 | > 95
2 | B1A1(G4S)3 (bispecific antibody) QVQLQESGGGLVQTGGSLRLSCAVHGRTFSNTGMGWFRQAPGNERQFVAIISPSGTSTYYADSVKGRFTISRDPAKNTVYLQMNSLKMDDTAVYYCAASYGSNWSTLRHQRRNEYDAWGQGTQVAVSGGGGSGGGGSGGGGSEVQLLESGGGLVQPGGSLRLSCAASGFTFGNYDMAWVRQAPGKRPEWVSSIDTGGDITHYADSVKGRFTISRDNAKNTLYLQMNSLRPEDTAVYWCATDEEYALGPNEFDYYGQGTLVTVSS | 5.3 | > 95
3 | B1A1(G4S)2 (bispecific antibody) QVQLQESGGGLVQTGGSLRLSCAVHGRTFSNTGMGWFRQAPGNERQFVAIISPSGTSTYYADSVKGRFTISRDPAKNTVYLQMNSLKMDDTAVYYCAASYGSNWSTLRHQRRNEYDAWGQGTQVAVSGGGGSGGGGSEVQLLESGGGLVQPGGSLRLSCAASGFTFGNYDMAWVRQAPGKRPEWVSSIDTGGDITHYADSVKGRFTISRDNAKNTLYLQMNSLRPEDTAVYWCATDEEYALGPNEFDYYGQGTLVTVSS | 10 | > 95
4 | A1B1(G4S)3 (bispecific antibody) EVQLLESGGGLVQPGGSLRLSCAASGFTFGNYDMAWVRQAPGKRPEWVSSIDTGGDITHYADSVKGRFTISRDNAKNTLYLQMNSLRPEDTAVYWCATDEEYALGPNEFDYYGQGTLVTVSSGGGGSGGGGSGGGGSQVQLQESGGGLVQTGGSLRLSCAVHGRTFSNTGMGWFRQAPGNERQFVAIISPSGTSTYYADSVKGRFTISRDPAKNTVYLQMNSLKMDDTAVYYCAASYGSNWSTLRHQRRNEYDAWGQGTQVAVS | 0.6 | > 95
5 | B1A1(G4S)1 (bispecific antibody) QVQLQESGGGLVQTGGSLRLSCAVHGRTFSNTGMGWFRQAPGNERQFVAIISPSGTSTYYADSVKGRFTISRDPAKNTVYLQMNSLKMDDTAVYYCAASYGSNWSTLRHQRRNEYDAWGQGTQVAVSGGGGSEVQLLESGGGLVQPGGSLRLSCAASGFTFGNYDMAWVRQAPGKRPEWVSSIDTGGDITHYADSVKGRFTISRDNAKNTLYLQMNSLRPEDTAVYWCATDEEYALGPNEFDYYGQGTLVTVSS | 5.3 | > 95

Other lines, results leading:

Row | EC50 [nM] | Max effect [%] | Binder
6 | 250 | > 95 | sdAb A2 (VHH, also called A1 triple mutant (T28R, P45Y, V93E)) VHH: EVQLLESGGGLVQPGGSLRLSCAASGFRFGNYDMAWVRQAPGKRYEWVSSIDTGGDITHYADSVKGRFTISRDNAKNTLYLQMNSLRPEDTAEYWCATDEEYALGPNEFDYYGQGTLVTVS
7 | 1.1 | > 95 | NIgG4B1A1(G4S)1 (Fc fusion) chain 1: QVQLQESGGGLVQTGGSLRLSCAVHGRTFSNTGMGWFRQAPGNERQFVAIISPSGTSTYYADSVKGRFTISRDPAKNTVYLQMNSLKMDDTAVYYCAASYGSNWSTLRHQRRNEYDAWGQGTQVAVSGGGGSGPPCPPCPAPEFLGGPSVFLFPPKPKDTLMISRTPEVTCVVVDVSQEDPEVQFNWYVDGVEVHNAKTKPREEQFNSTYRVVSVLTVLHQDWLNGKEYKCKVSNKGLPSSIEKTISKAKGQPREPQVYTLPPCQEEMTKNQVSLWCLVKGFYPSDIAVEWESNGQPENNYKTTPPVLDSDGSFFLYSRLTVDKSRWQEGNVFSCSVMHEALHNHYTQKSLSLSLGK chain 2: EVQLLESGGGLVQPGGSLRLSCAASGFTFGNYDMAWVRQAPGKRPEWVSSIDTGGDITHYADSVKGRFTISRDNAKNTLYLQMNSLRPEDTAVYWCATDEEYALGPNEFDYYGQGTLVTVSSGGGGSGPPCPPCPAPEFLGGPSVFLFPPKPKDTLMISRTPEVTCVVVDVSQEDPEVQFNWYVDGVEVHNAKTKPREEQFNSTYRVVSVLTVLHQDWLNGKEYKCKVSNKGLPSSIEKTISKAKGQPREPQVCTLPPSQEEMTKNQVSLSCAVKGFYPSDIAVEWESNGQPENNYKTTPPVLDSDGSFFLVSRLTVDKSRWQEGNVFSCSVMHEALHNHYTQKSLSLSLGK
8 | – | < 20 | sdAb F6 (VHH) VHH: DVQLQESGGGLVQAGGSLRLSCAASGLTFGSYDMGWYRQAPGKQRELVGRIRNDGITYYADSVKGRFTMSRDNAKNTVYLQMNSLKPEDTAVYYCAADGTGLGHYDYWGQGTQVTVS
9 | 1.9 | > 95 | NIgG4B1A1(RS) (Fc fusion, same for the Fc fusions below) chain 1: QVQLQESGGGLVQTGGSLRLSCAVHGRTFSNTGMGWFRQAPGNERQFVAIISPSGTSTYYADSVKGRFTISRDPAKNTVYLQMNSLKMDDTAVYYCAASYGSNWSTLRHQRRNEYDAWGQGTQVAVSRSGPPCPPCPAPEFLGGPSVFLFPPKPKDTLMISRTPEVTCVVVDVSQEDPEVQFNWYVDGVEVHNAKTKPREEQFNSTYRVVSVLTVLHQDWLNGKEYKCKVSNKGLPSSIEKTISKAKGQPREPQVYTLPPCQEEMTKNQVSLWCLVKGFYPSDIAVEWESNGQPENNYKTTPPVLDSDGSFFLYSRLTVDKSRWQEGNVFSCSVMHEALHNHYTQKSLSLSLGK chain 2: EVQLLESGGGLVQPGGSLRLSCAASGFTFGNYDMAWVRQAPGKRPEWVSSIDTGGDITHYADSVKGRFTISRDNAKNTLYLQMNSLRPEDTAVYWCATDEEYALGPNEFDYYGQGTLVTVSSRSGPPCPPCPAPEFLGGPSVFLFPPKPKDTLMISRTPEVTCVVVDVSQEDPEVQFNWYVDGVEVHNAKTKPREEQFNSTYRVVSVLTVLHQDWLNGKEYKCKVSNKGLPSSIEKTISKAKGQPREPQVCTLPPSQEEMTKNQVSLSCAVKGFYPSDIAVEWESNGQPENNYKTTPPVLDSDGSFFLVSRLTVDKSRWQEGNVFSCSVMHEALHNHYTQKSLSLSLGK
10 | 1.4 | > 95 | NIgG4B1A1(G4S)2 (Fc fusion) chain 1: QVQLQESGGGLVQTGGSLRLSCAVHGRTFSNTGMGWFRQAPGNERQFVAIISPSGTSTYYADSVKGRFTISRDPAKNTVYLQMNSLKMDDTAVYYCAASYGSNWSTLRHQRRNEYDAWGQGTQVAVSGGGGSGGGGSGPPCPPCPAPEFLGGPSVFLFPPKPKDTLMISRTPEVTCVVVDVSQEDPEVQFNWYVDGVEVHNAKTKPREEQFNSTYRVVSVLTVLHQDWLNGKEYKCKVSNKGLPSSIEKTISKAKGQPREPQVYTLPPCQEEMTKNQVSLWCLVKGFYPSDIAVEWESNGQPENNYKTTPPVLDSDGSFFLYSRLTVDKSRWQEGNVFSCSVMHEALHNHYTQKSLSLSLGK chain 2: EVQLLESGGGLVQPGGSLRLSCAASGFTFGNYDMAWVRQAPGKRPEWVSSIDTGGDITHYADSVKGRFTISRDNAKNTLYLQMNSLRPEDTAVYWCATDEEYALGPNEFDYYGQGTLVTVSSGGGGSGGGGSGPPCPPCPAPEFLGGPSVFLFPPKPKDTLMISRTPEVTCVVVDVSQEDPEVQFNWYVDGVEVHNAKTKPREEQFNSTYRVVSVLTVLHQDWLNGKEYKCKVSNKGLPSSIEKTISKAKGQPREPQVCTLPPSQEEMTKNQVSLSCAVKGFYPSDIAVEWESNGQPENNYKTTPPVLDSDGSFFLVSRLTVDKSRWQEGNVFSCSVMHEALHNHYTQKSLSLSLGK
11 | 0.9 | > 95 | NIgG4B1A1(G4S)3 (Fc fusion) chain 1: QVQLQESGGGLVQTGGSLRLSCAVHGRTFSNTGMGWFRQAPGNERQFVAIISPSGTSTYYADSVKGRFTISRDPAKNTVYLQMNSLKMDDTAVYYCAASYGSNWSTLRHQRRNEYDAWGQGTQVAVSGGGGSGGGGSGGGGSGPPCPPCPAPEFLGGPSVFLFPPKPKDTLMISRTPEVTCVVVDVSQEDPEVQFNWYVDGVEVHNAKTKPREEQFNSTYRVVSVLTVLHQDWLNGKEYKCKVSNKGLPSSIEKTISKAKGQPREPQVYTLPPCQEEMTKNQVSLWCLVKGFYPSDIAVEWESNGQPENNYKTTPPVLDSDGSFFLYSRLTVDKSRWQEGNVFSCSVMHEALHNHYTQKSLSLSLGK chain 2: EVQLLESGGGLVQPGGSLRLSCAASGFTFGNYDMAWVRQAPGKRPEWVSSIDTGGDITHYADSVKGRFTISRDNAKNTLYLQMNSLRPEDTAVYWCATDEEYALGPNEFDYYGQGTLVTVSSGGGGSGGGGSGGGGSGPPCPPCPAPEFLGGPSVFLFPPKPKDTLMISRTPEVTCVVVDVSQEDPEVQFNWYVDGVEVHNAKTKPREEQFNSTYRVVSVLTVLHQDWLNGKEYKCKVSNKGLPSSIEKTISKAKGQPREPQVCTLPPSQEEMTKNQVSLSCAVKGFYPSDIAVEWESNGQPENNYKTTPPVLDSDGSFFLVSRLTVDKSRWQEGNVFSCSVMHEALHNHYTQKSLSLSLGK
12 | 1100 | 75 | F5A1(G4S)4 (bispecific antibody) DVQLQESGGGLVQPGGSLRLSCAASGSIFSIDIMGWYRQAPGKQRELVATMPEGNYINYADSVKGRLTLSRDKGKNTVYLQLNSLKPEDTAVYYCYGFGVREGRGNVYWGQGTQVTVSGGGGSGGGGSGGGGSGGGGSEVQLLESGGGLVQPGGSLRLSCAASGFTFGNYDMAWVRQAPGKRPEWVSSIDTGGDITHYADSVKGRFTISRDNAKNTLYLQMNSLRPEDTAVYWCATDEEYALGPNEFDYYGQGTLVTVS
